Measurements from patent publication US8536118B2, “Methods and compositions for modulating hyperstabilized c-met” (Genentech, Inc., priority 2005, dated 2013).

Assays:
[1] = target: Met receptor (Homo sapiens, UniProt P08581, DEL964-1010); assay: Met receptor inhibition in serum-starved, rhuHGF-stimulated cells, immunoblot with infrared quantification; format: cell-based; conditions: H596 cells (Met exon 14 deletion), antibody 30 minutes, then 100 ng/ml rhuHGF; FIGS. 4A, 6
Method: (§1) To examine the prolonged signaling in H226, H596, H358, or Rat 1A-Met stable clones, the cells were rinsed with PBS then serum-starved in RPMI or DMEM media containing 0.5% BSA, 2 mM glutamine, and penicillin/streptomycin for one hour. rhuHGF or the agonistic anti-Met monoclonal antibody, 3D6 (Genentech), was added to the serum-free media for 10 minutes. The monolayer of cells was then rinsed with PBS and incubated with serum-free media until their extraction at the indicated times. Cells were then rinsed once with PBS, lysed with 1×SDS sample buffer containing 1×DTT (Invitrogen), sonicated briefly, and boiled for 5 minutes. […] Boiled samples were analyzed by SDS-PAGE and immunoblotted with P-Met (Y1230/Y1234/Y1235, BioSource), P-Met (Y1234/Y1235), Met (DL-21), P-MAPK (E10, Cell Signaling), P-MAPK (Cell Signaling), P-Akt (587F11, Cell Signaling), or Akt (Cell Signaling). […] Proteins transferred onto nitrocellulose membranes were detected by infrared scan using Odyssey (LiCor) according to the manufacturer's recommended western blotting instructions followed by quantification. […] After 72 hrs, cell viability was measured using the Celltiter-Glo Luminescent Cell Viability Assay (Promega). Stimulation indices were determined by dividing the average cell viability units of HGF-stimulated cultures by the average cell viability units of unstimulated cultures. […]

[2] = tested on: H596 cells; assay: Growth inhibition assay (Celltiter-Glo cell viability, 72 hrs, HGF stimulation); format: cell-based, human; conditions: with or without 50 ng/ml rhuHGF, FIG. 4B
Method: as §1

B1: OA-5D5: known anti-c-met inhibitor; antibody of intact light chain, heavy chain and N-terminally truncated heavy chain comprising an Fc portion (antibody, V domains shown)
VH: EVQLVESGGGLVQPGGSLRLSCAASGYTFTSYWLHWVRQAPGKGLEWVGMIDPSNSDTRFNPNFKDRFTISADTSKNTAYLQMNSLRAEDTAVYYCATYRSYVTPLDYWGQGTLVTVSS
VL: DIQMTQSPSSLSASVGDRVTITCKSSQSLLYTSSQKNYLAWYQQKPGKAPKLLIYWASTRESGVPSRFSGSGSGTDFTLTISSLQPEDFATYYCQQYYAYPWTFGQGTKVEIK
modifications: constant regions; truncated heavy chain Fc; Sequence is synthesized
notes: antibody of intact light chain, heavy chain and N-terminally truncated heavy chain comprising an Fc portion
- MAPK phosphorylation [1]: decreased with the addition of anti-Met OA-5D5 in a dose-dependent manner
- Met phosphorylation [1]: decreased with the addition of anti-Met OA-5D5 in a dose-dependent manner
- cell proliferation (cell viability) [2]: dose-dependent inhibition of cell proliferation in a ligand-dependent manner
